Test results from patent publication US20220177531A1 (NEW YORK UNIVERSITY, published 2022).

What was measured:
KRAS(G13D), GDP-bound = biological target: T1, KRAS(G13D), GDP-bound (Meleagris gallopavo (Wild turkey), UniProt P79800 1-174, GDP bound non-covalently; biotin on the N-terminal Avi-tag, and the tag is not in the letters); assay: yeast display titration, flow cytometry
T1 construct: Same protein as m19, loaded with GDP

KRAS(G12D), GTPγS-bound = biological target: T2, KRAS(G12D), GTPγS-bound (Meleagris gallopavo (Wild turkey), UniProt P79800 1-174, GTPγS bound non-covalently; biotin on the N-terminal Avi-tag, and the tag is not in the letters); assay: yeast display titration, flow cytometry
T2 construct: Loaded with GTPγS; tagged and biotinylated in the yeast-display assay

KRAS(G12D), GDP-bound = biological target: T3, KRAS(G12D), GDP-bound (Meleagris gallopavo (Wild turkey), UniProt P79800 1-174, GDP bound non-covalently; biotin on the N-terminal Avi-tag, and the tag is not in the letters); assay: yeast display titration, flow cytometry
T3 construct: Same protein as m17, loaded with GDP

KRAS(G13D), GTPγS-bound = biological target: T4, KRAS(G13D), GTPγS-bound (Meleagris gallopavo (Wild turkey), UniProt P79800 1-174, GTPγS bound non-covalently; biotin on the N-terminal Avi-tag, and the tag is not in the letters); assay: yeast display titration, flow cytometry
T4 construct: Loaded with GTPγS; tagged and biotinylated in the yeast-display assay

[1] = biological target: KRAS(G12V) in cells (endogenous in PATU8902 and H441) (UniProt P01116-2 1-185, limits assumed)

B1: Monobody 12VC1 (designed binder)
chain: VSSVPTKLEVVAATPTSLLISWDAPAVTVFFYVITYGETGHGVGAFQAFKVPGSKSTATISGLKPGVDYTITVYARGYSKQGPYKPSPISINYRT
B1: no binding (tested: 100 nM) (KRAS(G13D), GDP-bound); no binding (tested: 100 nM) (KRAS(G12D), GTPγS-bound); no binding (tested: 100 nM) (KRAS(G12D), GDP-bound). For the same binder, the binding result (KRAS(G13D), GTPγS-bound) was “no binding (tested: 100 nM)” and the FoldChange [1] was 1360.
